In publication PMC6004067:

Molecular target: GST-TBP, GST-tagged full-length human TBP (human) (UniProt P20226)
Assay: pull-down; GST pull-down: GST-TBP, GST-TFIIB or TBP fragments on glutathione beads; analytes in buffer B2 (150 mM NaCl), 1 h at 4°C, four washes, Western blot

GST-TBP, GST-tagged full-length human TBP (human), sequence (P20226 whole entry, the tested form may be a part): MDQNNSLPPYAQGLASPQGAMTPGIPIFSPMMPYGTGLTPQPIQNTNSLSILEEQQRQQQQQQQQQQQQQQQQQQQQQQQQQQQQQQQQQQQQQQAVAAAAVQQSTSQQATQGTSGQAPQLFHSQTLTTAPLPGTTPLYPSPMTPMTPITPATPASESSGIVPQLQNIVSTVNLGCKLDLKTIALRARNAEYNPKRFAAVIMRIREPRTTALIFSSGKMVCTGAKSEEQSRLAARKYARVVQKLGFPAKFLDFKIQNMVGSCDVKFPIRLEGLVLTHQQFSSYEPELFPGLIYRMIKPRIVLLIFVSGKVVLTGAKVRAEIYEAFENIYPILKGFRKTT

Substance: SNAP complex (SNAPc) (from UniProt Q5SXM2 1-1469; Q92966 1-411; Q13487 1-334; Q16533 1-368; O75971 1-98)
- increase in SNAPc recruitment to GST-TBP on addition of TFIIA: 60%
